Assay results published in patent US9358302.

Target: GBSIII-OVAp (GBSIII conjugated to OVAp19)
Test: cell-based or functional assay

T-cell receptor of DO11.10 transgenic mice that recognizes OVA peptide 323-339 in the context of MHC class II (I-A^d) (TCR)
T cell proliferation, stimulation index (SI), 10 µg GBSIII-OVAp: 53.6 SI
fold decrease in T cell proliferation against OVAp of the same amount: 60 fold
